Drawing on patent US12679878B2, “CRF2 receptor agonists and their use in therapy” (SANOFI, priority 2020, dated 2026), this text covers EC50 [nM], 0% HSA and EC50 [nM], 0.1% HSA for 4 molecules.

Starred links: 1 amine or outer side, 2 acyl side, 3 side chain; linkers in the order of their positions; H or OH if unused. Non-standard residues stand in square brackets, D forms with d. Groups on a side chain read outwards from the residue. No end group written: not given here. *: point of attachment. C18 diacid = O=C(O)CCCCCCCCCCCCCCCCC(=O)*; γGlu = O=C(O)[C@H](CCC(=O)[*:2])N[*:1]; Palmitoyl = CCCCCCCCCCCCCCCC(=O)*; AEEA = NCCOCCOCC(=O)O; Aib = CC(C)(N)C(=O)O

The target of this assay is human corticotropin-releasing factor 2α (CRF2 α receptor) (human), Q13324. Briefly: cell-based or functional assay.
human corticotropin-releasing factor 2α (CRF2 α receptor) (human), Q13324, sequence (Q13324 20-411): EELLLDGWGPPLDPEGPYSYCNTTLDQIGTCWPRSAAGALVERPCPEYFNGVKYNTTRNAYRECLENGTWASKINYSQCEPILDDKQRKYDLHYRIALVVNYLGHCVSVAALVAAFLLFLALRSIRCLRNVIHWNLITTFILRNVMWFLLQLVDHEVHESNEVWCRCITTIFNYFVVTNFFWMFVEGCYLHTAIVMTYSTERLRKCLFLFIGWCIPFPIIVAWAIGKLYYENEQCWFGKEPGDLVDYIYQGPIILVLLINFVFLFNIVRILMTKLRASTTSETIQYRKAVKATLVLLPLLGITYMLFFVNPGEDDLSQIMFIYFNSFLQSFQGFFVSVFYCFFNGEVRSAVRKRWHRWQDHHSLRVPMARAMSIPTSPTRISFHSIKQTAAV

B1: SEQ ID NO: 125 (peptide)
peptide: IVLSLDVPIKLK([AEEA-AEEA-γGlu-C18 diacid])QILLEQARQK[Aib]QREQAEKNKRILERV-NH2
modifications: N-terminus assumed
SMILES: CC[C@H](C)[C@H](N)C(=O)N[C@H](C(=O)N[C@@H](CC(C)C)C(=O)N[C@@H](CO)C(=O)N[C@@H](CC(C)C)C(=O)N[C@@H](CC(=O)O)C(=O)N[C@H](C(=O)N1CCC[C@H]1C(=O)N[C@H](C(=O)N[C@@H](CCCCN)C(=O)N[C@@H](CC(C)C)C(=O)N[C@@H](CCCCNC(=O)COCCOCCNC(=O)COCCOCCNC(=O)CC[C@H](NC(=O)CCCCCCCCCCCCCCCCC(=O)O)C(=O)O)C(=O)N[C@@H](CCC(N)=O)C(=O)N[C@H](C(=O)N[C@@H](CC(C)C)C(=O)N[C@@H](CC(C)C)C(=O)N[C@@H](CCC(=O)O)C(=O)N[C@@H](CCC(N)=O)C(=O)N[C@@H](C)C(=O)N[C@@H](CCCNC(=N)N)C(=O)N[C@@H](CCC(N)=O)C(=O)N[C@@H](CCCCN)C(=O)NC(C)(C)C(=O)N[C@@H](CCC(N)=O)C(=O)N[C@@H](CCCNC(=N)N)C(=O)N[C@@H](CCC(=O)O)C(=O)N[C@@H](CCC(N)=O)C(=O)N[C@@H](C)C(=O)N[C@@H](CCC(=O)O)C(=O)N[C@@H](CCCCN)C(=O)N[C@@H](CC(N)=O)C(=O)N[C@@H](CCCCN)C(=O)N[C@@H](CCCNC(=N)N)C(=O)N[C@H](C(=O)N[C@@H](CC(C)C)C(=O)N[C@@H](CCC(=O)O)C(=O)N[C@@H](CCCNC(=N)N)C(=O)N[C@H](C(N)=O)C(C)C)[C@@H](C)CC)[C@@H](C)CC)[C@@H](C)CC)C(C)C)C(C)C
In the case of B1, the EC50 [nM], 0% HSA came out at 0.47 nM and the EC50 [nM], 0.1% HSA turned out to be 19.9 nM.

B2: SEQ ID NO: 123 (peptide)
peptide: IVLSLDVPIKLK([AEEA-AEEA-γGlu-C18 diacid])QILLEQARQK[Aib]QRAQAEKNKRILERV-NH2
modifications: N-terminus assumed
SMILES: CC[C@H](C)[C@H](N)C(=O)N[C@H](C(=O)N[C@@H](CC(C)C)C(=O)N[C@@H](CO)C(=O)N[C@@H](CC(C)C)C(=O)N[C@@H](CC(=O)O)C(=O)N[C@H](C(=O)N1CCC[C@H]1C(=O)N[C@H](C(=O)N[C@@H](CCCCN)C(=O)N[C@@H](CC(C)C)C(=O)N[C@@H](CCCCNC(=O)COCCOCCNC(=O)COCCOCCNC(=O)CC[C@H](NC(=O)CCCCCCCCCCCCCCCCC(=O)O)C(=O)O)C(=O)N[C@@H](CCC(N)=O)C(=O)N[C@H](C(=O)N[C@@H](CC(C)C)C(=O)N[C@@H](CC(C)C)C(=O)N[C@@H](CCC(=O)O)C(=O)N[C@@H](CCC(N)=O)C(=O)N[C@@H](C)C(=O)N[C@@H](CCCNC(=N)N)C(=O)N[C@@H](CCC(N)=O)C(=O)N[C@@H](CCCCN)C(=O)NC(C)(C)C(=O)N[C@@H](CCC(N)=O)C(=O)N[C@@H](CCCNC(=N)N)C(=O)N[C@@H](C)C(=O)N[C@@H](CCC(N)=O)C(=O)N[C@@H](C)C(=O)N[C@@H](CCC(=O)O)C(=O)N[C@@H](CCCCN)C(=O)N[C@@H](CC(N)=O)C(=O)N[C@@H](CCCCN)C(=O)N[C@@H](CCCNC(=N)N)C(=O)N[C@H](C(=O)N[C@@H](CC(C)C)C(=O)N[C@@H](CCC(=O)O)C(=O)N[C@@H](CCCNC(=N)N)C(=O)N[C@H](C(N)=O)C(C)C)[C@@H](C)CC)[C@@H](C)CC)[C@@H](C)CC)C(C)C)C(C)C
The molecule B2 returned an EC50 [nM], 0% HSA of 0.33 nM and an EC50 [nM], 0.1% HSA of 9.74 nM.

B3: SEQ ID NO: 124 (peptide)
peptide: IVLSLDVPIKLK([AEEA-AEEA-γGlu-C18 diacid])QILLKQARQK[Aib]QRAQAEKNKRILERV-NH2
modifications: N-terminus assumed
SMILES: CC[C@H](C)[C@H](N)C(=O)N[C@H](C(=O)N[C@@H](CC(C)C)C(=O)N[C@@H](CO)C(=O)N[C@@H](CC(C)C)C(=O)N[C@@H](CC(=O)O)C(=O)N[C@H](C(=O)N1CCC[C@H]1C(=O)N[C@H](C(=O)N[C@@H](CCCCN)C(=O)N[C@@H](CC(C)C)C(=O)N[C@@H](CCCCNC(=O)COCCOCCNC(=O)COCCOCCNC(=O)CC[C@H](NC(=O)CCCCCCCCCCCCCCCCC(=O)O)C(=O)O)C(=O)N[C@@H](CCC(N)=O)C(=O)N[C@H](C(=O)N[C@@H](CC(C)C)C(=O)N[C@@H](CC(C)C)C(=O)N[C@@H](CCCCN)C(=O)N[C@@H](CCC(N)=O)C(=O)N[C@@H](C)C(=O)N[C@@H](CCCNC(=N)N)C(=O)N[C@@H](CCC(N)=O)C(=O)N[C@@H](CCCCN)C(=O)NC(C)(C)C(=O)N[C@@H](CCC(N)=O)C(=O)N[C@@H](CCCNC(=N)N)C(=O)N[C@@H](C)C(=O)N[C@@H](CCC(N)=O)C(=O)N[C@@H](C)C(=O)N[C@@H](CCC(=O)O)C(=O)N[C@@H](CCCCN)C(=O)N[C@@H](CC(N)=O)C(=O)N[C@@H](CCCCN)C(=O)N[C@@H](CCCNC(=N)N)C(=O)N[C@H](C(=O)N[C@@H](CC(C)C)C(=O)N[C@@H](CCC(=O)O)C(=O)N[C@@H](CCCNC(=N)N)C(=O)N[C@H](C(N)=O)C(C)C)[C@@H](C)CC)[C@@H](C)CC)[C@@H](C)CC)C(C)C)C(C)C
As for B3, the EC50 [nM], 0% HSA came out at 0.11 nM and the EC50 [nM], 0.1% HSA was 4.37 nM.

B4: SEQ ID NO: 12 (peptide)
peptide: FTLSLDVPTKIK([γGlu-Palmitoyl])QKLLKQEKQRKQKQQAKTNAKILARV-NH2
modifications: N-terminus assumed
SMILES: CCCCCCCCCCCCCCCC(=O)N[C@@H](CCC(=O)NCCCC[C@H](NC(=O)[C@@H](NC(=O)[C@H](CCCCN)NC(=O)[C@@H](NC(=O)[C@@H]1CCCN1C(=O)[C@@H](NC(=O)[C@H](CC(=O)O)NC(=O)[C@H](CC(C)C)NC(=O)[C@H](CO)NC(=O)[C@H](CC(C)C)NC(=O)[C@@H](NC(=O)[C@@H](N)Cc1ccccc1)[C@@H](C)O)C(C)C)[C@@H](C)O)[C@@H](C)CC)C(=O)N[C@@H](CCC(N)=O)C(=O)N[C@@H](CCCCN)C(=O)N[C@@H](CC(C)C)C(=O)N[C@@H](CC(C)C)C(=O)N[C@@H](CCCCN)C(=O)N[C@@H](CCC(N)=O)C(=O)N[C@@H](CCC(=O)O)C(=O)N[C@@H](CCCCN)C(=O)N[C@@H](CCC(N)=O)C(=O)N[C@@H](CCCNC(=N)N)C(=O)N[C@@H](CCCCN)C(=O)N[C@@H](CCC(N)=O)C(=O)N[C@@H](CCCCN)C(=O)N[C@@H](CCC(N)=O)C(=O)N[C@@H](CCC(N)=O)C(=O)N[C@@H](C)C(=O)N[C@@H](CCCCN)C(=O)N[C@H](C(=O)N[C@@H](CC(N)=O)C(=O)N[C@@H](C)C(=O)N[C@@H](CCCCN)C(=O)N[C@H](C(=O)N[C@@H](CC(C)C)C(=O)N[C@@H](C)C(=O)N[C@@H](CCCNC(=N)N)C(=O)N[C@H](C(N)=O)C(C)C)[C@@H](C)CC)[C@@H](C)O)C(=O)O
For the molecule B4, the EC50 [nM], 0% HSA is 0.09 nM.
